For experiment [1], the target named is T1, Acro SARS-CoV-2 (COVID-19) S1 protein (SARS-CoV-2, UniProt P0DTC2 16-685).
T1 construct: also called SARS-CoV-2 S1
Briefly: SPR. In general terms: In SPR one partner is held on a chip, and binding of the other changes the refractive index at the surface.

Experiment [2] addresses T2, ACE2 (human, UniProt Q9BYF1 18-740).
The target in experiment [3] is T2, ACE2. The source holds these as a separate data set.

Like-named read-outs stand apart in the source and are kept apart here.

T2 sequence (Q9BYF1 18-740 limits assumed): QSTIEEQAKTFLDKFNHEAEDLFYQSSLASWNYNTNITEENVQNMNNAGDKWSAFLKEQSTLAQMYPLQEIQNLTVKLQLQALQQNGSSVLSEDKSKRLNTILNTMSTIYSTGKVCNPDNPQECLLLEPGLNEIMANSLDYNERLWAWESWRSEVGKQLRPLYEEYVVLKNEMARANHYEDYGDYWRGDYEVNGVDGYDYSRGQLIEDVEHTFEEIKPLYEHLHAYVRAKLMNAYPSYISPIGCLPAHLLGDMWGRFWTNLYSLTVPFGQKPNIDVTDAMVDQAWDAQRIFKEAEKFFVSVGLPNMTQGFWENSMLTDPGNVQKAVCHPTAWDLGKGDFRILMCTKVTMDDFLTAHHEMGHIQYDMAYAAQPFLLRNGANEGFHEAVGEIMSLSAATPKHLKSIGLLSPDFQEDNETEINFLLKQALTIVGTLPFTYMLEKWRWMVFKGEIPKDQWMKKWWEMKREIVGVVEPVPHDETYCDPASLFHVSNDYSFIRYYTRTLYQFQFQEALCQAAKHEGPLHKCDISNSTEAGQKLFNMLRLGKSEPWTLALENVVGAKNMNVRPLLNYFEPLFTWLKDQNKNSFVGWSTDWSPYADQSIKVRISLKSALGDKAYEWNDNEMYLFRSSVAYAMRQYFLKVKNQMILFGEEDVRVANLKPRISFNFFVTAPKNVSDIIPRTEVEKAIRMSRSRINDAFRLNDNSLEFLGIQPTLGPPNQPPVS

B1: variant 6-99 (Fc fusion)
VHH: EVQLVESGGGLVQPGGSLRLSCAASGIPFRSRTMGWFRQAPGKEREFVAGISRSGASTAYADSVKGRFTISADNSKNTAYLQMNSLKPEDTAVYYCTHANDYGDYWGQGTLVTVSS
Turning to B1, in experiment [1], the Kd was 51.6 nM.

B2: variant 6-103 (Fc fusion)
VHH: EVQLVESGGGLVQPGGSLRLSCAASGRTSSPIAMGWFRQAPGKEREPVAVRWSDDYTYYADSVKGRFTISADNSKNTAYLQMNSLKPEDTAVYYCAKKLGGYYAFDIWGQGTLVTVSS
Molecule B2 returned a Kd in experiment [1] of 23.6 nM.

B3: ACE2 variant antibody 4-33 (VHH)
VHH: EVQLVESGGGLVQPGGSLRLSCAASGFTFSRHDMGWFRQAPGKEREFVAGINWESGSTNYADSVKGRFTISADNSKNTAYLQMNSLKPEDTAVYYCAADRGVYGGRWYRTSQYTWGQGTLVTVSS
Regarding B3, in the experiment with ACE2 [2], the koff worked out at 0.000552 s⁻¹ and the kon stood at 229000 M⁻¹ s⁻¹. In the experiment with ACE2 [3], this molecule came in with a Kd of 2.4 nM, a koff of 0.000552 s⁻¹ and a kon of 229000 M⁻¹ s⁻¹.

B4: ACE2 variant antibody 4-89 (VHH)
VHH: EVQLVESGGGLVQPGGSLRLSCAASGFAFGDNWIGWFRQAPGKEREWVASISSGGTTAYADNVKGRFTIIADNSKNTAYLQMNSLKPEDTAVYYCAHRGGWLRPWGYWGQGTLVTVSS
In the experiment with ACE2 [2], B4 gave a dissociation rate constant (koff) of 0.000611 s⁻¹ and a kon of 2.04e+06 M⁻¹ s⁻¹. In the experiment with ACE2 [3], the Kd came to 0.3 nM, the koff worked out at 0.000611 s⁻¹ and the kon came to 2.04e+06 M⁻¹ s⁻¹.

B5: variant 6-79 (Fc fusion)
VHH: EVQLVESGGGLVQPGGSLRLSCAASGSISSIDYMGWFRQAPGKEREGVSWISSSDGSTYYADSVKGRFTISADNSKNTAYLQMNSLKPEDTAVYYCARSPSFSQIYYYYYMDVWGQGTLVTVSS
Regarding B5, the affinity in experiment [1], expressed as Kd, was 158 nM.

B6: variant 6-81 (Fc fusion)
VHH: EVQLVESGGGLVQPGGSLRLSCAASGFIGNYHAMGWFRQAPGKEREFVAAVTWSGGTTNYADSVKGRFTISADNSKNTAYLQMNSLKPEDTAVYYCAREGYYYDSSGYPYYFDYWGQGTLVTVSS
In the case of B6, binding in experiment [1] was characterised by a dissociation constant (Kd) of 12.9 nM.

B7: variant 6-102 (Fc fusion)
VHH: EVQLVESGGGLVQPGGSLRLSCAASGSSFSAYAMGWFRQAPGKEREFVSAIDSEGTTTYADSVKGRFTISADNSKNTAYLQMNSLKPEDTAVYYCAGDYNFWSGFDHWGQGTLVTVSS
Molecule B7 had a Kd in experiment [1] of 45.7 nM.

B8: variant 6-90 (Fc fusion)
VHH: EVQLVESGGGLVQPGGSLRLSCAASGFPFSIWPMGWFRQAPGKEREFVAAVRWSSTYYADSVKGRFTISADNSKNTAYLQMNSLKPEDTAVYYCATGECDGGSCSLAYWGQGTLVTVSS
B8 registered a Kd in experiment [1] of 114 nM.

B9: variant 6-84 (Fc fusion)
VHH: EVQLVESGGGLVQPGGSLRLSCAASGFTPDDYAMGWFRQAPGKEREFVAAINSGGSYTYYADSVKGRFTISADNSKNTAYLQMNSLKPEDTAVYYCARDRGPWGQGTLVTVSS
Turning to B9, the Kd in experiment [1] is 82.6 nM. The Kd values of the last two molecules are within 1.5-fold of each other.

B10: variant 6-74 (Fc fusion)
VHH: EVQLVESGGGLVQPGGSLRLSCAASGFAFGDSWMGWFRQAPGKERELVAAITSGGSTDYADSVKGRFTISADNSKNTAYLQMNSLKPEDTAVYYCARGLLWFGELFGYWGQGTLVTVSS
Turning to B10, in experiment [1], the equilibrium dissociation constant (Kd) is 73.9 nM.

B11: ACE2 variant antibody 4-64 (VHH)
VHH: EVQLVESGGGLVQPGGSLRLSCAASGRTFGDYIMGWFRQAPGKERESVAAINWSAGYTAYADSVKGRFTISADNSKNTAYLQMNSLKPEDTAVYYCATASPNTGWHFDHWGQGTLVTVSS
Turning to B11, in the experiment with ACE2 [2], the koff was 0.0007 s⁻¹ and the kon turned out to be 2.9e+06 M⁻¹ s⁻¹. In the experiment with ACE2 [3], this molecule registered a Kd of 0.2 nM, a koff of 0.0007 s⁻¹ and a kon of 2.9e+06 M⁻¹ s⁻¹.

B12: ACE2 variant antibody 4-49 (VHH)
VHH: EVQLVESGGGLVQPGGSLRLSCAASGRTFGDYIMGWFRQAPGKERESVAAINWSAGYTAYADSVKGRFTISADNSKNTAYLQMNSLKPEDTAVYYCARASPNTGWHFDHWGQGTLVTVSS
In the experiment with ACE2 [2], B12 registered an off-rate constant (koff) of 0.00098 s⁻¹ and a kon of 2.91e+06 M⁻¹ s⁻¹. In the experiment with ACE2 [3], this molecule returned an equilibrium dissociation constant (Kd) of 0.3 nM, a koff of 0.00098 s⁻¹ and a kon of 2.91e+06 M⁻¹ s⁻¹.

B13: ACE2 variant antibody 4-41 (VHH)
VHH: EVQLVESGGGLVQPGGSLRLSCAASGRTFGDYIMGWFRQAPGKERESVAAINWSGGTTPYADSVKGRFTISADNSKNTAYLQMNSLKPEDTAVYYCATDPPLFCCHVDLWGQGTLVTVSS
As to B13, in the experiment with ACE2 [2], the koff came to 0.001 s⁻¹ and the kon is 180000 M⁻¹ s⁻¹. In the experiment with ACE2 [3], the Kd worked out at 5.6 nM, the koff is 0.001 s⁻¹ and the kon is 180000 M⁻¹ s⁻¹.

B14: ACE2 variant antibody 4-61 (VHH)
VHH: EVQLVESGGGLVQPGGSLRLSCAASGRTFGDYIMGWFRQAPGKEREIVAAINWSADYTPYADSVKGRFTISADNSKNTAYLQMNSLKPEDTAVYYCATAPPNTGWHFDHWGQGTLVTVSS
For the molecule B14, in the experiment with ACE2 [2], the koff was determined as 0.00286 s⁻¹ and the kon was 348000 M⁻¹ s⁻¹. In the experiment with ACE2 [3], this molecule showed a Kd of 8.2 nM, a koff of 0.00286 s⁻¹ and a kon of 348000 M⁻¹ s⁻¹.

B15: ACE2 variant antibody 4-95 (VHH)
VHH: EVQLVESGGGLVQPGGSLRLSCAASGRTFGDYIMGWFRQAPGKEREIVAAINWSAGYTAYADSVKGRFTISADNSKNTAYLQMNSLKPEDTAVYYCATAPPLFCWHFDHWGQGTLVTVSS
In the experiment with ACE2 [2], B15 gave a koff of 0.00772 s⁻¹ and a kon of 415000 M⁻¹ s⁻¹. In the experiment with ACE2 [3], this molecule displayed a Kd of 18.6 nM, a koff of 0.00772 s⁻¹ and a kon of 415000 M⁻¹ s⁻¹.

B16: ACE2 variant antibody 4-62 (VHH)
VHH: EVQLVESGGGLVQPGGSLRLSCAASGRTFSDDTMGWFRQAPGKEREFVAAINWSGGSTDYADSVKGRFTISADNSKNTAYLQMNSLKPEDTAVYYCATDPPLFWGQGTLVTVSS
In the experiment with ACE2 [2], B16 registered a koff of 0.00365 s⁻¹ and a kon of 245000 M⁻¹ s⁻¹. For the same molecule, in the experiment with ACE2 [3], the affinity, expressed as Kd, was 14.9 nM; the koff was found to be 0.00365 s⁻¹; the kon is 245000 M⁻¹ s⁻¹.

B17: ACE2 variant antibody 4-67 (VHH)
VHH: EVQLVESGGGLVQPGGSLRLSCAASGRTFSDDTMGWFRQAPGKEREFVAAINWSGDSTYYADSVKGRFTISADNSKNTAYLQMNSLKPEDTAVYYCATDPPLFWGQGTLVTVSS
In the experiment with ACE2 [2], B17 had a koff of 0.00214 s⁻¹ and a kon of 93900 M⁻¹ s⁻¹. Moreover, in the experiment with ACE2 [3], the Kd was determined as 22.8 nM, the koff came to 0.00214 s⁻¹ and the kon was 93900 M⁻¹ s⁻¹.

B18: ACE2 variant antibody 4-74 (VHH)
VHH: EVQLVESGGGLVQPGGSLRLSCAASGLTFSDDTMGWFRQAPGKEREFVAAVSWSGGNTYYADSVKGRFTISADNSKNTAYLQMNSLKPEDTAVYYCATDPPLFWGQGTLVTVSS
Turning to B18, in the experiment with ACE2 [2], the koff came to 0.00285 s⁻¹ and the kon is 248000 M⁻¹ s⁻¹. In the experiment with ACE2 [3], the Kd turned out to be 11.5 nM, the dissociation rate constant (koff) is 0.00285 s⁻¹ and the kon came out at 248000 M⁻¹ s⁻¹.

B19: ACE2 variant antibody 4-69 (VHH)
VHH: EVQLVESGGGLVQPGGSLRLSCAASGRTFSDDAMGWFRQAPGKEREFVAAINWSGGTTRYADSVKGRFTISADNSKNTAYLQMNSLKPEDTAVYYCATDPPLFWGQGTLVTVSS
For the molecule B19, in the experiment with ACE2 [2], the koff was 0.00256 s⁻¹ and the kon worked out at 99400 M⁻¹ s⁻¹. In the experiment with ACE2 [3], this molecule registered a Kd of 25.8 nM, a koff of 0.00256 s⁻¹ and a kon of 99400 M⁻¹ s⁻¹.

B20: ACE2 variant antibody 4-63 (VHH)
VHH: EVQLVESGGGLVQPGGSLRLSCAASGRTFSDYTMGWFRQAPGKEREFVAAINWSGGYTYYADSVKGRFTISADNSKNTAYLQMNSLKPEDTAVYYCATDPPLFWGQGTLVTVSS
With B20, in the experiment with ACE2 [2], the koff was determined as 0.00105 s⁻¹ and the kon is 610000 M⁻¹ s⁻¹. In the experiment with ACE2 [3], this molecule yielded a Kd of 1.7 nM, a koff of 0.00105 s⁻¹ and a kon of 610000 M⁻¹ s⁻¹.

B21: variant 6-82 (Fc fusion)
VHH: EVQLVESGGGLVQPGGSLRLSCAASGSSLDAYGMGWFRQAPGKEREFVAAISWGGGSIYYADSVKGRFTISADNSKNTAYLQMNSLKPEDTAVYYCARLSQGMVALDYWGQGTLVTVSS
In experiment [1], B21 had a Kd of 7.1 nM.

B22: variant 6-108 (Fc fusion)
VHH: EVQLVESGGGLVQPGGSLRLSCAASGGTFGSYGMGWFRQAPGKEREFVAAIRWSGGITYYADSVKGRFTISADNSKNTAYLQMNSLKPEDTAVYYCARERYWNPLPYYYYGMDVWGQGTLVTVSS
The molecule B22 came in with a Kd in experiment [1] of 69.4 nM. This Kd lies about 9.8-fold higher than the previous one.

B23: variant 6-112 (Fc fusion)
VHH: EVQLVESGGGLVQPGGSLRLSCAASGGTFSAYHMGWFRQAPGKERELVTIIDNGGPTSYADSVKGRFTISADNSKNTAYLQMNSLKPEDTAVYYCTALLYYFDNSGYNFDPFDIWGQGTLVTGSS
B23 yielded a Kd in experiment [1] of 3230 nM.

B24: variant 6-75 (Fc fusion)
VHH: EVQLVESGGGLVQPGGSLRLSCAASGGTFSTYWMGWFRQAPGKEREFVAAISRSGGNTYYADSVKGRFTISADNSKNTAYLQMNSLKPEDTAVYYCVRHSGTDGDSSFDYWGQGTLVTVSS
For the molecule B24, the Kd in experiment [1] was 181 nM.

B25: variant 6-97 (Fc fusion)
VHH: EVQLVESGGGLVQPGGSLRLSCAASGFTFSSLAMGWFRQAPGKEREFVAAITWSGDITNYADSVKGRFTITADNSKNTAYLQMNSLKPEDTAVYYCLRLSSSGFDHWGQGTLVTVSS
As to B25, in experiment [1], the Kd came to 4070 nM.

B26: variant 6-72 (Fc fusion)
VHH: EVQLVESGGGLVQPGGSLRLSCAASGSTLSINAMGWFRQAPGKEREFVAAIDWSGGSTAYADSVKGRFTISADNSKNTAYLQMNSLKPEDTAVYYCARDSSATRTGPDYWGQGTLVTVSS
In experiment [1], B26 gave a Kd of 92.8 nM.

One may read the Kd as a measure of binding affinity in units of concentration. The low end stands for tighter binding, the high end for weaker binding. Broadly, the koff is a measure of how fast the partners let go of each other. A high value points to fast dissociation. The kon is the rate constant with which the complex forms. A higher kon goes with faster complex formation.

Values taken from patent US20210355194A1 (TWIST BIOSCIENCE, published 2021).
